Measurements: paper PMC6858450
Primed or numbered codes have the meaning given here. No end group written: not given here. *: point of attachment. Mca = COc1ccc2c(CC(=O)*)cc(=O)oc2c1; Dnp′ = not defined here

Experiments:
[1] = test system: securin-separase fusion C2029S (catalytically dead) (Homo sapiens); assay: fluorescence polarization; conditions: 25 mM HEPES pH 7.8, 50 mM KCl, 5 mM MgCl2, 0.5 mM TCEP; 1 nM DNA; 30 min at 25 °C
[2] = target: active (apo, securin-free) human separase (human) (UniProt Q14674)
[3] = target: active (apo, securin-free) human separase (human) (UniProt Q14674); remark: listed apart in the source
[4] = target: active (apo, securin-free) human separase (human) (UniProt Q14674); remark: listed apart in the source

Chain of UniProt Q14674 (Q14674 whole entry S1126A): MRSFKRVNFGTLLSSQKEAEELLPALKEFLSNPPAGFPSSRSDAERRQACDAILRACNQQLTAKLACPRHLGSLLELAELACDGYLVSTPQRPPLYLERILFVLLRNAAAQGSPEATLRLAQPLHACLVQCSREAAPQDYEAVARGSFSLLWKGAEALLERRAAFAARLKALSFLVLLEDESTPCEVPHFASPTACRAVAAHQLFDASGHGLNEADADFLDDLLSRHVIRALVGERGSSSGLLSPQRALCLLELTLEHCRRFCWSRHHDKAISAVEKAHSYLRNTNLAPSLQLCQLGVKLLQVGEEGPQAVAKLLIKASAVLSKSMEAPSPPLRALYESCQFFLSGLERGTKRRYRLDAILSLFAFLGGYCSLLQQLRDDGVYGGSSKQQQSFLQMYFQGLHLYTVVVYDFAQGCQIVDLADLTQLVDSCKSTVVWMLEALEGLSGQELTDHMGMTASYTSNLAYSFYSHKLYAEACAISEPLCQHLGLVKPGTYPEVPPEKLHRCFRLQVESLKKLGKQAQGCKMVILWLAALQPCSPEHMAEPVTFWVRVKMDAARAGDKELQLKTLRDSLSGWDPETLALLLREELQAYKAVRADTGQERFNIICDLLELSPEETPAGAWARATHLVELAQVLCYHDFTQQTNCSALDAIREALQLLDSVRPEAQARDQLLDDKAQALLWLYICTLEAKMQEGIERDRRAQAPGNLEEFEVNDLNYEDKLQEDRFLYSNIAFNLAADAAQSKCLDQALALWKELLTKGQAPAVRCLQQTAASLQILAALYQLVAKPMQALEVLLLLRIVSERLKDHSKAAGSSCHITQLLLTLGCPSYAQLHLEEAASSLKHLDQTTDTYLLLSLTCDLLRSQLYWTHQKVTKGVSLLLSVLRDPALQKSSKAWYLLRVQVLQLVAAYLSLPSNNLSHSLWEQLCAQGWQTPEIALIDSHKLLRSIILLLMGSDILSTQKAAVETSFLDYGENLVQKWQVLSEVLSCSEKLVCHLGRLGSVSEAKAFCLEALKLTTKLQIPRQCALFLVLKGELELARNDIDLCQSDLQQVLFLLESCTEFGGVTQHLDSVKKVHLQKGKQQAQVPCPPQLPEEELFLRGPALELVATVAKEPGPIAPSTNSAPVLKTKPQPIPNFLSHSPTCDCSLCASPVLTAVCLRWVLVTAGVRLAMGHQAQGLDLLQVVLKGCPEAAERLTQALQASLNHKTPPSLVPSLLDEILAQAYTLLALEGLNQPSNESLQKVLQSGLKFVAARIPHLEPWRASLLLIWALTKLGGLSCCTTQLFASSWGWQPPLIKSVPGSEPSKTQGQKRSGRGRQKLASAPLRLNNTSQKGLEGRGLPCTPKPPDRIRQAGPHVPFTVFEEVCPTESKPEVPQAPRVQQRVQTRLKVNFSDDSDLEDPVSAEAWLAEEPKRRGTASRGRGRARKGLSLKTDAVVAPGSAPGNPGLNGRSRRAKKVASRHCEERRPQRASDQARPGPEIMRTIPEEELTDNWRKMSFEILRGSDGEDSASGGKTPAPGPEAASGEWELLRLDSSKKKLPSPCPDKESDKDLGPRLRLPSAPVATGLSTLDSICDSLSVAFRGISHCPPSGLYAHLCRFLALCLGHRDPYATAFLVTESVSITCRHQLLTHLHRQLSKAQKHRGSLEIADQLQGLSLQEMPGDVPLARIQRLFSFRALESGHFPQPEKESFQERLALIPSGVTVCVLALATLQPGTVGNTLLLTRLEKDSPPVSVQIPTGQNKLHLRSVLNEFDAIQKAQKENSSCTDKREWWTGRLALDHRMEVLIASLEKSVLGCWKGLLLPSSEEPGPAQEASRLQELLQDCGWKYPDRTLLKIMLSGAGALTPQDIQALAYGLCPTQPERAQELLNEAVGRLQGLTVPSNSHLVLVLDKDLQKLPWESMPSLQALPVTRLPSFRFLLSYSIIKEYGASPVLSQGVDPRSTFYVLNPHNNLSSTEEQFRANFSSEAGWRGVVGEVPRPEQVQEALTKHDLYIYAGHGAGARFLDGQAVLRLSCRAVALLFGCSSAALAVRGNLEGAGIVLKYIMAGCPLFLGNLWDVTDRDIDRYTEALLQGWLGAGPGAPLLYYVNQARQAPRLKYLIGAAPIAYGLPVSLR

Row | Molecule | Kd [1] | also measured
1 | 25 bp | 800 nM | 
2 | 50 bp | 300 nM | 
3 | 50 bp 2 | 220 nM | 
4 | securin^RE fragment (aa 93-150) (domain or fragment, also: 35S-methionine-labeled) MTEKTVKAKSSVPASDDAYPEIEKFREFNPLDFESFDLPEEHQIAHLPLSGVPLMILD |  | cleavage of the 35S-labeled securin^RE fragment (93-150) by separase in vitro (SDS-PAGE, Phosphorimaging) [2]: 50%
5 | Mca-DDREIMREGS-{Dnp′} [Mca-…-Dnp, Scc1 site 1 substrate peptide] |  | KM of cleavage of the FRET dye-quencher peptide by purified active separase (Michaelis-Menten analysis) [3]: 70 µM
6 | separase biosensor H2B-mRuby2-Scc1(142-467)-mNeonGreen, ^255Leu-Pro to Ala-Ala (domain or fragment) EITMREEVGNISILQENDFGDFGMDDREIMREGSAFEDDDMLVSTTTSNLLLESEQSTSNLNEKINHLEYEDQYKDDNFGEGNDGGILDDKLISNNDGGIFDDPPALSEAGVMAAEQPAHDDMDEDDNVSMGGPDSPDSVDPVEPMPTMTDQTTLVPNEEEAFALEPIDITVKETKAKRKRKLIVDSVKELDSKTIRAQLSDYSDIVTTLDLAPPTKKLMMWKETGGVEKLFSLPAQPLWNNRLLKLFTRCLTPLVPEDLRKRRKGGEADNLDEFLKEFENPEVPREDQQQQHQQRDVIDEPIIEEPSRLQESVMEASRTNIDESA |  | cleavage of the separase biosensor in U2OS cells in anaphase (loss of GFP relative to RFP on chromosomes); the enzyme is the endogenous separase of the cells [4]: 50%
